The values that follow come from the nanobody polyreactivity screen of Harvey et al. (2022).

The nature of the data set: yeast display, Sf9 membrane polyspecificity reagent, FACS + sequencing; frameworks hold sequencing errors. A digest of the protocol:
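A synthetic nanobody library was expressed on Saccharomyces cerevisiae BJ5465 by galactose induction for 36–48 hours. The library was stained for 1 hour at 4 °C with 10% biotinylated, detergent-solubilized Sf9 membrane reagent and enriched with streptavidin microbeads before FACS. Low and high (top ~1%) gates were set on anti-HA fluorescence for expression and streptavidin fluorescence for reagent binding, and each polyreactivity label reflects the gate of origin.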
For the sequence “QVQLVESGGGLVQAGGSLRLSCAASGRIYKSYAMGWYRQAPGKERELVAAIRSGGSTYYADSVKGRFTISRDNAKNTVYLQMKSLKPEDTAVYYCAADRYSYGSNGYPRFEYYYWGQGTQVTVSS”, the “polyreactivity (PSR sort gate)” value is reported as “high polyreactivity”. As to “QVQLVESGGGLVQAGGSLRLSCAASGRIYLTNAMGWYRQAPGKERELVAAITSGGSTYYADSVKGRFTISRDNAKNTVYLQMNSLKPEDTAVYYCNADTDRYWPYEYDYWGQGTQVTVSS”, the “polyreactivity (PSR sort gate)” value was “low polyreactivity”. Take “QVQLVESGGGLVQAGGSLRLSCAASGRIYPKNTMGWYRQERGKERELVAAINWNGGRTYYADSEKGRFTISRDNAKNTVYLPMNSLKPEYTAVYYCAKDGYWDFDYWGQGTQVTVSS”: the “polyreactivity (PSR sort gate)” value is on record as “low polyreactivity”. Regarding “QVQLVESGGGLVQAGGSLRLSCAASGRIYPTYTMGWYRQAPGKERELVAAINRGGGSTYYADSVKGRFTISRDTAKNTVYLQLICLKPEDTAVYYCTARTYYRSYGYDYWGQGTQVTVSS”, the “polyreactivity (PSR sort gate)” value is given as “low polyreactivity”. As for “QVQLVESGGGLVQAGGSLRLSCAASGRIYRINALGWYRQAPGKERELVATITSGGGSTYADSVKGRFTISRDNAKNTVYLQMNSLKPEDTAVYFCAARSRIGRYTYDYWGQGTQVTVSS”, the “polyreactivity (PSR sort gate)” value is recorded as “high polyreactivity”. For the sequence “QVQLVESGGGLVQAGGSLRLSCAASGRIYRRNTMGWYRQAPGKERELVAAITSSGGSTYADSVKGRFTISRDNAKNTVYLQMISLKPEDSAVYYCATYVAYHRGYRTYDHWGQGTHVTVSS”, the “polyreactivity (PSR sort gate)” value is given as “low polyreactivity”. “QVQLVESGGGLVQAGGSLRLSCAASGRIYSVYGLGWYRQAPGKDRELVAAISSSAGSTNYADSVKGRFTISRDNAKNTVYLQMNSLKPEDTAVYYCAAYYRRVVYYPTAYYIRKYDYWGQGTQVTVSS”: the “polyreactivity (PSR sort gate)” value is on record as “high polyreactivity”.

For the sequence “QVQLVESGGGLVQAGGSLRLSCAASGRIYSYYAMGWYRQAPGKERELVATINSGGSTNYADSVNGRFTISRDNAKNTVYLQMKSLKPEDTAVYYCGALRDRDITVYYDTGRMYYWGQGTQVNVSS”, the “polyreactivity (PSR sort gate)” value is reported as “low polyreactivity”. Regarding “QVQLVESGGGLVQAGGSLRLSCAASGRIYWNTMGWYRPAPGKERELVASISTGGGRTYYADSVKGRFTISRDNAKNTVYLQMNSLKPEDTAVYYCAARRGAGYSRFNYWGQGTQVTVSS”, the “polyreactivity (PSR sort gate)” value is reported as “high polyreactivity”. Regarding “QVQLVESGGGLVQAGGSLRLSCAASGRIYWNTMGWYRQAPGKERQLVASISTGGGRTYYADSVKGRFTISRDNAKNTVYLQMNSLKPEDTAVYYCAARRGAGYSRFNYWGQGTQVTVSS”, the “polyreactivity (PSR sort gate)” value was “high polyreactivity”. For “QVQLVESGGGLVQAGGSLRLSCAASGRIYYVYGMGWYRQAPGKERELVAAITRSGGSTYYADSVKGRFTISRDNAKNTVYLQMNSLKPEDTAVYYCAASVPYYTGYYYNAYEYWGQGTQVTVSS”, the “polyreactivity (PSR sort gate)” value is listed as “high polyreactivity”. With “QVQLVESGGGLVQAGGSLRLSCAASGRIYYWYDMGWYRQAPGKERELVAAISWSGGSTSYADSVKGRFTISRDNAKNTVYLQMNSLKPEDTAVYYCNADLTQYLGPVYEYGYWGQGTQVTVSS” the entry was “low polyreactivity”; with “QVQLVESGGGLVQAGGSLRLSCAASGRIYYYYTMGWYRQAPGKERELVAGISRSGDRTYYADSVKGRFTISRDIAKNTVYLQMNSLKPEDTAVYYCATRWSSARMDYWGQGTQVTVSS”, “high polyreactivity”; with “QVQLVESGGGLVQAGGSLRLSCAASGRLFGAYGMGWYRQAPRKERELVAAISNGGRTSYADSVKGRFTISRDNAKNTVYLQMNSLKPEDTAVYYCAAVYWPWYGAYDYWGQGTQVTVSS”, “high polyreactivity”. Regarding “QVQLVESGGGLVQAGGSLRLSCAASGRLFRHNAMGWYRQAPGKERELVAVISRSTGSTYYADSVKGRFTISRYNAKNTVYLQMNSLKPEDTAVYYCDAKYGSGQRYDYWGQGTQVTVSS”, the “polyreactivity (PSR sort gate)” value is “high polyreactivity”. Turning to “QVQLVESGGGLVQAGGSLRLSCAASGRLFRWYAMGGYRQAPGKERELVAAISRSGTSTYYADSVKGRFTISRDNAKNSVYLQMNSLKPEDTAVYYCAADAVIFGMDYWGQGTQVTVSS”, the “polyreactivity (PSR sort gate)” value is recorded as “low polyreactivity”. Regarding “QVQLVESGGGLVQAGGSLRLSCAASGRMGWYRQAPGKERELVAAITSGDRTNYADSVKGRFTISRDNAKNTVYLQMNSLKREDTAVYYCATEPSWYHGFIDPRGYWGQGTQVTVSS”, the “polyreactivity (PSR sort gate)” value was “low polyreactivity”. Turning to “QVQLVESGGGLVQAGGSLRLSCAASGRNFDRNAMGWSRQAPGKERELVARIDPGDDTNYADSVKGRFTISRDNAKNTVYLQMNSLKPEDTAVYYCATDPDYVLYRTAYYEYDYWGQGTQVTVSS”, the “polyreactivity (PSR sort gate)” value is recorded as “low polyreactivity”. With “QVQLVESGGGLVQAGGSLRLSCAASGRNFFANAMGWYRQAPGKERELVASITRRSGGTYYADSVKGRFTISRDNAKNTVYLQMISLKPEDTAVYYCAARYTFPKDLYYYWGQGTQVTVSS”, the “polyreactivity (PSR sort gate)” value is reported as “high polyreactivity”.

Consider “QVQLVESGGGLVQAGGSLRLSCAASGRNFGIYAMGWYRQAPGKERELVARITGGGSTNYADSVKGRFTISRDNAKNTVYLQMNSLKPEDTAVYYCAATVRRIVGNITRYDYWGQGTQVTVSS”, for which the “polyreactivity (PSR sort gate)” value is “low polyreactivity”.

Take “QVQLVESGGGLVQAGGSLRLSCAASGRNFGRYAMGCYRQAPGKERELVAAITGRGASTYYADSVKGRFTISRDNAKHTVYLQMNSLKPEDTAVYYCNAFRGAQGTDAYDWGQGTQVPVSS”: the “polyreactivity (PSR sort gate)” value is on record as “low polyreactivity”. On to “QVQLVESGGGLVQAGGSLRLSCAASGRNFGSNTMGWYRQAPGKERELVAAITGDDSTYADSVKGRFTISRDNAKNTVYLQMNSLKPEDTAVYYCAVVWVWDVWFLVYYWGQGTQVTVSS”, for which the “polyreactivity (PSR sort gate)” value is “low polyreactivity”. For the sequence “QVQLVESGGGLVQAGGSLRLSCAASGRNFKQYAMGWYRQAPGKERELVAVITRGGGSTYYADSVKGRFTISRDNAKNTVYLQMNSLKPEDTAVYYCAARGTQAPPGRRTGGYNSWGQGTQVTVSS”, the “polyreactivity (PSR sort gate)” value was “high polyreactivity”. Take “QVQLVESGGGLVQAGGSLRLSCAASGRNFPDNTMGWYRHAPGKERELVATIAWIGASTYYADSEKGRFTISRDNAKNTVYLQMNSLKPEDTAVDYCAGTTSHRWYGFNSKYDFDYWGQGTQVTVSS”: the “polyreactivity (PSR sort gate)” value is “low polyreactivity”.

For “QVQLVESGGGLVQAGGSLRLSCAASGRNFQWYSMGWSRQAPGKEREFVAAIRYSGGSTYYADSVKGRFTISRDNAKNTVYLQMNSMKPEDTSVYYCNARTGFLARNKRFGYWGQGTQVSVSS”, the “polyreactivity (PSR sort gate)” value is listed as “high polyreactivity”. Regarding “QVQLVESGGGLVQAGGSLRLSCAASGRNFRGNTMGWYRQAPGKERELVAAITRGGSTSYADSVKGRFTISRDNAKNTVILQMNSLKPEDTAVYYCATRTHGEGTRRVSWGQGTQVTVSS”, the “polyreactivity (PSR sort gate)” value is on record as “low polyreactivity”. With “QVQLVESGGGLVQAGGSLRLSCAASGRNFRLNAMGWYRQAPGKERDLVARITGSYGGSTYYADSVKGRFTISRDNAKNTVSLQMISLKPEDSAGYYCADDGTGSYKGYYWGLGTQVTVSS”, the “polyreactivity (PSR sort gate)” value is given as “high polyreactivity”. For “QVQLVESGGGLVQAGGSLRLSCAASGRNFRYYAMGWYRQAPGKERELVAAITTGSSTYYADSVKGRFTISRDNAKNTVYLQMNSLKPEDTAVYYCNVFQGTRYGYWGQGTQVTVSS”, the “polyreactivity (PSR sort gate)” value was “low polyreactivity”.

Turning to “QVQLVESGGGLVQAGGSLRLSCAASGRNFSRYALGWYRQAPGKERELVAAINNGGSTYYADSVKGRFTISRDNAMNTVYLQMNSLKPEDTALYYCAKLWWSNFKPVEYWGQGTQVTVSS”, the “polyreactivity (PSR sort gate)” value is listed as “low polyreactivity”. With “QVQLVESGGGLVQAGGSLRLSCAASGRNFSTYAMGWYRQAPWKERELVAAINKIGGSTYYADSVKGRFTISRDNAKNTVYLQMNILKPEDTAVYYCAADAPYYPVRRYYYWGQGTQVTVSS”, the “polyreactivity (PSR sort gate)” value is reported as “low polyreactivity”.

Take “QVQLVESGGGLVQAGGSLRLSCAASGRNFWYYAMGWYRQAPGKERELVAGITYGDGSTYYADSVKGRFTISRDNAKNTVYLQMNSLKPEDTAVYYCAVDLRSYWFRYGFDYWGQGTQVTVSS”: the “polyreactivity (PSR sort gate)” value is listed as “low polyreactivity”.

“QVQLVESGGGLVQAGGSLRLSCAASGRNFYYAMGWYRQEPGKERELVASITWSGGSTYYADSVKGRFTISRDNAKNTVYLQMNSLKPEDTAVYYCNADDLYTWYVEYNYWGQGTQVTVSS”: the “polyreactivity (PSR sort gate)” value is given as “low polyreactivity”. For “QVQLVESGGGLVQAGGSLRLSCAASGRNFYYNAMGWYRQAPGKERELVASITGSGGSTYYADSVKGRFTISRDNAKNTVYLQMNSLKPEDTAVYYCAKREYLYPYYYVAKYDYWGQGTQVTVSS”, the “polyreactivity (PSR sort gate)” value is recorded as “low polyreactivity”. As to “QVQLVESGGGLVQAGGSLRLSCAASGRNFYYYAMGWYRQAPGKERELVAGISWSAGSTYYADSVKGRFTISRDNAKNTVYLQMNSLKPEDTAVYYCAARYWQSYRSQVTHSSTLDYWGQGTQVTVSS”, the “polyreactivity (PSR sort gate)” value is recorded as “low polyreactivity”. For the sequence “QVQLVESGGGLVQAGGSLRLSCAASGRNLHYYSMGWYRQAPGKEWELVAAITWSGGSTYYADSVNGRFTISRDNAKNTVYLQMNSLKPVDTSVYYCAARGTDWGQGTQVTVSS”, the “polyreactivity (PSR sort gate)” value was “low polyreactivity”. On to “QVQLVESGGGLVQAGGSLRLSCAASGRNSSWNAMGWYRPAPGKERELVAAISVRGGSTYADSVKGRFTISRDNAKNTVSLQMNSLTPADTAVYYCAKTYYPYRLGEGQYEYDYWGQGTQVTVSS”, for which the “polyreactivity (PSR sort gate)” value is reported as “low polyreactivity”.

In the case of “QVQLVESGGGLVQAGGSLRLSCAASGRPFWQYAMGWKRQGPGKERELVAAITSSGGSTYDADSVKGRITISRDNAKNTVYLQMNCLKPEDTAVYYCADDTRYYRYYYWGQGTQVTVSS”, the “polyreactivity (PSR sort gate)” value was “high polyreactivity”. Consider “QVQLVESGGGLVQAGGSLRLSCAASGRRFRWYVMGWYRQAPGKERELVARISSNVGSTYYADSVKGRFTISRDNAKNTVYLQMNSLKPEDTAVYYCAAGPPKYYYSNRYYWGQGTQVTVSS”, for which the “polyreactivity (PSR sort gate)” value is given as “high polyreactivity”. With “QVQLVESGGGLVQAGGSLRLSCAASGRSFAPYAMGWSRQAPGKERELVAAISLSTTRTYYADSVKGRFTISRDNAKNTVYLQMNSLKPEDTAVYYCAAETFTGYFFLRHDYWGQGTQVTVSS” the entry was “high polyreactivity”.

Take “QVQLVESGGGLVQAGGSLRLSCAASGRSFKYNAMGWYRQAPGKERELVAAISISGGSTYYADSVKGRFTISRDNAKNTVYLQMNSLKPEDTAVYYCNDDTYYLSDYVTFDYWGQGTQVTVSS”: the “polyreactivity (PSR sort gate)” value is recorded as “low polyreactivity”. The same measure for “QVQLVESGGGLVQAGGSLRLSCAASGRSFLYYAMGWYRQAPGKERELVAAIRRGSSTYYADSVKGRFTISRDNAKNTVYLQMNSLKPEDTAVYYCAARGRYRIGPGRYGKRYAYWGQGTQVTVSS”: “high polyreactivity”.
